Assay results taken from patent publication US20150259380A1 (SANFORD BURNHAM MEDICAL RESEARCH INSTITUTE, published 2015).
Ends that are not written are not given here.

T1: p32 in 4T1 breast tumor extracts (mouse, UniProt O35658 71-278)
T1 construct: Endogenous protein from tumor extract
T1 sequence (looked up): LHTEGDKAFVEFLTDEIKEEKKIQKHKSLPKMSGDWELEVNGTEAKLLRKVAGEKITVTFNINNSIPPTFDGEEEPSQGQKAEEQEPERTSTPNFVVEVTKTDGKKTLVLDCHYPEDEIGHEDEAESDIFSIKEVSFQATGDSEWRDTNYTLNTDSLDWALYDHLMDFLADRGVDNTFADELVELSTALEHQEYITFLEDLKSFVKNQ

T2: recombinant human NRP2 Fc chimera (R&D), purified (human, UniProt O60462 23-864)
T2 construct: Bought Fc chimera; also called purified NRP2; neuropilin-2; Fc part of the bought chimera not given; not described
T2 sequence (looked up): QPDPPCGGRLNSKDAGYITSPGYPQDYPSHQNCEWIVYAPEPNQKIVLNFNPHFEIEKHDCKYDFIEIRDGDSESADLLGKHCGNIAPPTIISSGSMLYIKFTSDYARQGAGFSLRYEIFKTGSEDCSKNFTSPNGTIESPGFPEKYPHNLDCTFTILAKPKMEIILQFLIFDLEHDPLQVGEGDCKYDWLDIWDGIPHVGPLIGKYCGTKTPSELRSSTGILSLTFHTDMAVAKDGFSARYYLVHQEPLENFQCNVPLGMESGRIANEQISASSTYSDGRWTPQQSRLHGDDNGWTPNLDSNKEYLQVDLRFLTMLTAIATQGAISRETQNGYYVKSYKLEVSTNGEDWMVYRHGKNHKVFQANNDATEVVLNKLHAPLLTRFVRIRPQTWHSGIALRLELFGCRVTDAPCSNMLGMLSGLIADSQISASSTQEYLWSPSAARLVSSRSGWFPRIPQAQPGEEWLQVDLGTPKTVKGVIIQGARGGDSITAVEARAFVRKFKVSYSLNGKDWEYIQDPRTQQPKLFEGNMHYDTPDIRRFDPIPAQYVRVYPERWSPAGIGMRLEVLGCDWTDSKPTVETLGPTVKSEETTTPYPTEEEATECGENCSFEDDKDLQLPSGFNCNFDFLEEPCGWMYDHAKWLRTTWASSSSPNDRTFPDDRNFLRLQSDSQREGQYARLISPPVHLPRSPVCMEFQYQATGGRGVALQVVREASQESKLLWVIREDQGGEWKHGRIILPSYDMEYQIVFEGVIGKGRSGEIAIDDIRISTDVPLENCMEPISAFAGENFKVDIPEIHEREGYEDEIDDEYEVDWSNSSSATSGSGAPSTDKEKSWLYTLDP

T3: recombinant human NRP1 (R&D), purified (human, UniProt O14786-2 22-644, limits assumed)
T3 construct: Bought protein; also called purified NRP1; immobilized NRP1
T3 sequence (looked up): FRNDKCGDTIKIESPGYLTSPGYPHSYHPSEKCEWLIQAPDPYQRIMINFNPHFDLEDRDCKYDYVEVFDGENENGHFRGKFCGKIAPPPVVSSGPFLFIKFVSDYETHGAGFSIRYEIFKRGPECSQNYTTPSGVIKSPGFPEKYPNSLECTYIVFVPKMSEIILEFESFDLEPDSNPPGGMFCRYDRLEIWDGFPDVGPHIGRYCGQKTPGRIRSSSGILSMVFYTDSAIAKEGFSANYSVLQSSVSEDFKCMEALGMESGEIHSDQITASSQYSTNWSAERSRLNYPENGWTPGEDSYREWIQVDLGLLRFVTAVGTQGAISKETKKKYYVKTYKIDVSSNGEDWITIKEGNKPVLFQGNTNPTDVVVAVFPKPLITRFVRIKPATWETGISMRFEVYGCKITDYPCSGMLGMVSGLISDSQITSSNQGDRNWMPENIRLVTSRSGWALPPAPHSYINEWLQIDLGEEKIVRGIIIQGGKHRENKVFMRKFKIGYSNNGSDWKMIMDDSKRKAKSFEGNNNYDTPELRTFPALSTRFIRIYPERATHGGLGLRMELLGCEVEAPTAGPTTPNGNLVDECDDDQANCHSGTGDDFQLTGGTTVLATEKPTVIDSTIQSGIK


Legend:
[1] = target: T1, p32 in 4T1 breast tumor extracts; experiment: affinity chromatography of 4T1 tumor extracts on immobilized tLyP-1
[2] = target: T2, recombinant human NRP2 Fc chimera …; experiment: phage binding to NRP2-coated microtiter wells, plaque titration (FIG. 3A)
Description: B. MDA-MB-435 cells were incubated with phage at 4° C. to assess NRP2 binding. […] Binding is expressed as percentage of binding in control conditions. (mean±SEM; n=4/group; * p<0.05; **, p<0.01).
(§1) Microtiter wells (Costar) were coated with 5 μg/mL of purified NRP1 or NRP2, blocked with PBS supplemented with 0.5% BSA and incubated with 10⁸ plaque-forming units (pfu) of phage in 100 μL of PBS/0.05% Tween 20 for 20 h at 37° C. After six washes in PBS/0.05% Tween 20, bound phage was eluted with 200 μL of 1 M Tris-HCl (pH 7.5)/0.5% SDS for 30 min and quantified by a plaque assay (titration).

[3] = target: T3, recombinant human NRP1 (R&D), purified; experiment: phage binding to NRP1-coated microtiter wells, plaque titration (FIG. 2)
Description: as §1

[4] = target: T4, NRP1 on human tumor cells (DU145 prostate carcinoma cells; PPC1 prostate tumor cells) (human, UniProt O14786 22-923); experiment: 10^9 pfu phage on cultured PPC1 cells, anti-T7 staining, confocal microscopy
T4 construct: whole, on cells; DU145 express NRP1 but not NRP2; PPC1 express very high NRP1 and low NRP2; also called neuropilin-1; CendR receptor
Description: Phage were detected by staining with anti-T7 phage polyclonal antibody. Nuclei were stained with DAPI. […] Cells were co-stained for NRP1 and nuclei were stained with DAPI. […] Non-conjugated neutravidin was used as a control. Nuclei were stained with DAPI. Cells were analyzed by confocal microscopy.

[5] = target: T4, NRP1 on human tumor cells (DU145 …); experiment: phage binding to DU145 cells at 4 C with or without anti-NRP1 (FIG. 1B)

| Binder | binding as fold over control (insertless) phage [2] [fold] | binding as fold over control (insertless) phage [3] [fold] | binding result [5] | other results |
| --- | --- | --- | --- | --- |
| CGNKRTR (the coupling is not described) [tLyP-1 affinity matrix (immobilized tLyP-1 peptide)] | – | – | – | binding result [1]: no binding |
| RPARPAR [RPARPAR phage (T7 phage displaying the prototypic CendR peptide RPARPAR)] | 29 | 276 | – | binding ratio over the control phage [3]: 280 fold |
| CGNKRTRGC (also: cyclic nonapeptide, ring not given here, displayed on T7 phage, LyP-1 is described as a cyclic nonapeptide; also called intact LyP-1) [LyP-1 phage (T7 phage displaying full-length LyP-1, CGNKRTRGC)] | 0.6 | 1.6 | – | binding result [4]: no binding; binding result [2]: no binding; binding result [3]: no binding |
| CGNKR [CGNKR phage (truncated LyP-1, amino acids 1-5 of SEQ ID NO:10)] | – | – | no binding | – |
| CGNKRTR (also called CGNKRTR phage; phage tLyP-1) [tLyP-1 phage (T7 phage displaying CGNKRTR, truncated LyP-1)] | 8 | 119 | – | binding as fold over insertless control phage [3]: ~120 fold |
| CGNK [CGNK phage (truncated LyP-1, amino acids 1-4 of SEQ ID NO:10)] | – | – | no binding | – |
